This test addresses adaptor protein-2 (AP-2). Description: pull-down (IP with AP-2 antibody, western blot densitometry). As to conditions: HEK-293 cells transfected with GFP-V0a1 constructs; n=4; parent: est. 1.0; read off a plot. For orientation: In western blotting, separated proteins are transferred to a membrane and probed.

Consider one substance from PMC5344305.

As for WT GFP-V0a1 (from UniProt Q93050) C25S, the ratio to parent (arbitrary unit) was 0.37.
